Laboratory results published in patent US20190316091A1.

Target: immune complexes of Dylight 650-labeled bovine serum albumin, polyclonal rabbit anti-BSA and human serum complement (bovine) (UniProt P02769)
Assay: cell-based or functional assay

Chain of UniProt P02769 (P02769 25-607, one chain of several): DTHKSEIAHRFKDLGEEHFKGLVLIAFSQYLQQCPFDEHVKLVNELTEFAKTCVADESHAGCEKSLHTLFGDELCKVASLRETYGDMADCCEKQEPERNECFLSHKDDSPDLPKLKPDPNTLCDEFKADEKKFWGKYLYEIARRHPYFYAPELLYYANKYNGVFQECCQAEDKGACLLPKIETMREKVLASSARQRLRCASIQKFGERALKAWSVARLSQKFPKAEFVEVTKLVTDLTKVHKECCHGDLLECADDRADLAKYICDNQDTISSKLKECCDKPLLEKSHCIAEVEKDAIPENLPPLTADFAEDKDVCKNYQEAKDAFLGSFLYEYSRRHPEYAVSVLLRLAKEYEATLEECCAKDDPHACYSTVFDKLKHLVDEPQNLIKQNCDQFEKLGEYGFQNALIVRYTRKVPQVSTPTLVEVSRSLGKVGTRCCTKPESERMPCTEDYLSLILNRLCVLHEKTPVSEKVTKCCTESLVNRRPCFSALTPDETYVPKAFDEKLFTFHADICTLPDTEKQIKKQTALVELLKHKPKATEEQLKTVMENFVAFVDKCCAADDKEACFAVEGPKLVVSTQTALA

- uptake of labeled immune complexes by PMA-activated U937 macrophages in co-culture (flow cytometry fluorescence): 2 fold
Substance: complement receptor 1 (CR1) over-expressed on the surface of cultured erythroid cells (from UniProt P17927 42-2039)
